The source of these data is US20160083713.

Data set [1] concerns T1, Protein 3: Erythrobacter sp. SD-21 PAL-like domain with N-terminal TAP purification tag (ribosomal protein L9 from T. maritima) and HRV14 3C protease site linker.
T1 sequence: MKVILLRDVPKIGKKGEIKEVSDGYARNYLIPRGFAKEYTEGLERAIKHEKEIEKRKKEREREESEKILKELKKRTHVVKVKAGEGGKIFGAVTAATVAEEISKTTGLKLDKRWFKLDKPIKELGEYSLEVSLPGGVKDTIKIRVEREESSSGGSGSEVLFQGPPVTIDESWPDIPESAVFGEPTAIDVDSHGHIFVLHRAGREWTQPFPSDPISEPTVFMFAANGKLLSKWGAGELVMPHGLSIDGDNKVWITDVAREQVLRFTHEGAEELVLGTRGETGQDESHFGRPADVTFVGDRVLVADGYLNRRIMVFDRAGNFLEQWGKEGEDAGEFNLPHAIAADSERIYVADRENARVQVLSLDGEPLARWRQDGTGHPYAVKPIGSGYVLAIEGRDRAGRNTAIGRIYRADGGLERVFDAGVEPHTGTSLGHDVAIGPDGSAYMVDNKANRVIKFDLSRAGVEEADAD

The test system of data set [2] is T2, Protein 8: Exiguobacterium PAL-like domain with N-terminal TAP purification tag and HRV14 3C protease site linker.
T2 sequence: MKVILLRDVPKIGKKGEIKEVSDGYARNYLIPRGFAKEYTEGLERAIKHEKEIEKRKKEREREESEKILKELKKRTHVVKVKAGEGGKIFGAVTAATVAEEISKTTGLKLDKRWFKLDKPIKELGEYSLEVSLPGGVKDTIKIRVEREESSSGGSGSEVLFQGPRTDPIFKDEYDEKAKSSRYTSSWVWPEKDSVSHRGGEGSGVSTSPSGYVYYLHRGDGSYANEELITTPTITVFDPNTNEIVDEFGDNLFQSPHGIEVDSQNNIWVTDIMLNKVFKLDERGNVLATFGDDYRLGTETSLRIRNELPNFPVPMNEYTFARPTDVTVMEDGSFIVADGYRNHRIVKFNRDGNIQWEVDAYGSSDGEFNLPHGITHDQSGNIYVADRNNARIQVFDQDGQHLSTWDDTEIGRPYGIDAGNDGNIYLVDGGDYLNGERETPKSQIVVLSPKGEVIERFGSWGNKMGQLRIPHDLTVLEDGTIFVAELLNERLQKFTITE

Data set [3] concerns the target T3, TAP tagged amylin analog model peptide (SEQ ID NO:17), alpha-hydroxyglycine intermediate form.
T3 chain: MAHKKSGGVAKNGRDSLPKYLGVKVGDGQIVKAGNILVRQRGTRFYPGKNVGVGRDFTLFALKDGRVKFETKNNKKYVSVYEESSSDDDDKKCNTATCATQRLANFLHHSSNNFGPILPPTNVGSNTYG

Data set [4] addresses C-terminal alpha-hydroxyglycine extended Pramlintide (alpha-hydroxylated SEQ ID NO:25).
The target of data set [5] is T4, TAP tagged C-terminal Gly extended amylin analog model peptide (SEQ ID NO:17), precursor form.
T4 chain: T3 chain

Data set [6] has as its target C-terminally Gly-extended Pramlintide (SEQ ID NO: 25).

Regarding “TAP tagged HRV14 3C protease (from WO 2008/043847)”, the “proteolytic cleavage at the linker, LC-MS and SDS-PAGE, overnight at 30 C, enzyme to substrate 1:25” value in data set [1] is “resulted in two fragments determined to 33323 Da and 18284.78 Da corresponding to the released PAL-like domain ... and to the released purification tag and HRV14 3C linker”. In data set [2], the “proteolytic cleavage at the linker, SDS-PAGE, overnight, enzyme to substrate 1:25” value is “two fragments corresponding to the mature Exiguibacterium PAL-like domain (SEQ ID NO:2) (upper band) and the released TAP tag (SEQ ID NO:7-SEQ ID NO:8) (lower band) was present in the application”.

B1: Protein 10: Planctomyces DSM 8797 PAL-like domain with N-terminal TAP purification tag and HRV14 3C protease site linker (protein)
chain: MKVILLRDVPKIGKKGEIKEVSDGYARNYLIPRGFAKEYTEGLERAIKHEKEIEKRKKEREREESEKILKELKKRTHVVKVKAGEGGKIFGAVTAATVAEEISKTTGLKLDKRWFKLDKPIKELGEYSLEVSLPGGVKDTIKIRVEREESSSGGSGSEVLFQGPADKIDFEPAAINIELPEGLALGPASAVDFDSKGRMYLFHRGPQPILVFDQSGKFVRSWGDKLISQAHGLRVAPDETIWVTDIGNHMVFQFNPEGKLLLALGQAGKPGDSQDQFNKPTDIAFGPQGEFYISDGYGNSRVMKFAANGKNLGQWGTPGKGPGEFNLPHSILVDAKGRVLVGDRENDRVQIFDLEGNLLEIWTGFAPYGMEFDSRGNLFVADGRANKVLQLNASGKVENSWGKTGKEPGEYNLPHMLAVDAAGNLFVTEIGGKRLQKLQRK
In the case of B1, the “conversion to the alpha amidated form, LC-MS, co-incubation with rat PHM at 37 C” value in data set [3] is “With protein 10 total conversion of the precursor was observed already after 1 h-2 h incubation”.

B2: Erythrobacter PAL-like domain (SEQ ID NO: 1) (protein)
chain: GPPVTIDESWPDIPESAVFGEPTAIDVDSHGHIFVLHRAGREWTQPFPSDPISEPTVFMFAANGKLLSKWGAGELVMPHGLSIDGDNKVWITDVAREQVLRFTHEGAEELVLGTRGETGQDESHFGRPADVTFVGDRVLVADGYLNRRIMVFDRAGNFLEQWGKEGEDAGEFNLPHAIAADSERIYVADRENARVQVLSLDGEPLARWRQDGTGHPYAVKPIGSGYVLAIEGRDRAGRNTAIGRIYRADGGLERVFDAGVEPHTGTSLGHDVAIGPDGSAYMVDNKANRVIKFDLSRAGVEEADAD
Take B2: the “conversion of the alpha-hydroxyglycine intermediate to alpha amidated Pramlintide, LC-MS, 37 C, 1 h” value in data set [4] is given as “could almost completely convert the peptide substrate to fully alpha-amidated peptide using a enzyme to substrate ratio of 1:100”.

B3: Planctomyces PAL-like domain (SEQ ID NO: 4) (protein)
chain: GPADKIDFEPAAINIELPEGLALGPASAVDFDSKGRMYLFHRGPQPILVFDQSGKFVRSWGDKLISQAHGLRVAPDETIWVTDIGNHMVFQFNPEGKLLLALGQAGKPGDSQDQFNKPTDIAFGPQGEFYISDGYGNSRVMKFAANGKNLGQWGTPGKGPGEFNLPHSILVDAKGRVLVGDRENDRVQIFDLEGNLLEIWTGFAPYGMEFDSRGNLFVADGRANKVLQLNASGKVENSWGKTGKEPGEYNLPHMLAVDAAGNLFVTEIGGKRLQKLQRK
Consider B3, for which the “conversion of the alpha-hydroxyglycine intermediate to alpha amidated Pramlintide, LC-MS, 37 C, 1 h” value in data set [4] was “could almost completely convert the peptide substrate to fully alpha-amidated peptide using a enzyme to substrate ratio of 1:100”.

B4: rat PHM domain (amino acids 36 to 497 of the 976 aa full-length rat PAM sequence), His tagged (protein)
chain: FKETTRSFSNECLGTIGPVTPLDASDFALDIRMPGVTPKESDTYFCMSMRLPVDEEAFVIDFKPRASMDTVHHMLLFGCNMPSSTGSYWFCDEGTCTDKANILYAWARNAPPTRLPKGVGFRVGGETGSKYFVLQVHYGDISAFRDNHKDCSGVSVHLTRVPQPLIAGMYLMMSVDTVIPPGEKVVNADISCQYKMYPMHVFAYRVHTHHLGKVVSGYRVRNGQWTLIGRQNPQLPQAFYPVEHPVDVTFGDILAARCVFTGEGRTEATHIGGTSSDEMCNLYIMYYMEAKYALSFMTCTKNVAPDMFRTIPAEANIPIPVKPDMVMMHGHHKEAENKEKSALMQQPKQGEEEVLEQGDFYSLLSKLLGEREDVHVHKYNPTEKTESGSDLVAEIANVVQKKDLGRSDAREGAEHEEWGNAILVRDRIHRFHQLESTLRPAESRAFSFQQPGEGPWEPEPSG
Regarding B4, the “conversion of the C-terminal Gly to alpha-hydroxyglycine, LC-MS after 2 hours at 37 C” value in data set [5] is “the vast majority of the model peptide was on the intermediate form comprising a α-hydroxyglycine in the C-terminal”. In data set [6], the “conversion of Gly-extended Pramlintide to the alpha-hydroxyglycine form, LC-MS, enzyme to substrate 1:20 (w/w), 37 C, 2 h” value is “it was verified that the intermediate alpha-hydroxyglycine form of Pramlintide was obtained”.

B5: Protein 3: Erythrobacter sp. SD-21 PAL-like domain with N-terminal TAP purification tag (ribosomal protein L9 from T. maritima) and HRV14 3C protease site … (protein)
chain: T1 sequence
On to B5, for which the “conversion to the alpha amidated form, LC-MS, co-incubation with rat PHM at 37 C” value in data set [3] was “near complete conversion to the alpha amidated form required 5 hours incubation with the protein 3 enzyme”.
